*1 amine or outer side, *2 acyl side, *3 side chain or, on linkers, in order; H or OH if unused. Where no end group is shown, it is not given here. Side-chain parts run from the residue outwards. [ ]: non-standard residue; d: D form. The star is where a group is joined. γGlu = O=C(O)[C@H](CCC(=O)[*:2])N[*:1]; Stearoyl = CCCCCCCCCCCCCCCCCC(=O)*; Palmitoyl = CCCCCCCCCCCCCCCC(=O)*; Aib = CC(C)(N)C(=O)O
T1: human GIP receptor (human, UniProt P48546 22-466)
T1 sequence (looked up): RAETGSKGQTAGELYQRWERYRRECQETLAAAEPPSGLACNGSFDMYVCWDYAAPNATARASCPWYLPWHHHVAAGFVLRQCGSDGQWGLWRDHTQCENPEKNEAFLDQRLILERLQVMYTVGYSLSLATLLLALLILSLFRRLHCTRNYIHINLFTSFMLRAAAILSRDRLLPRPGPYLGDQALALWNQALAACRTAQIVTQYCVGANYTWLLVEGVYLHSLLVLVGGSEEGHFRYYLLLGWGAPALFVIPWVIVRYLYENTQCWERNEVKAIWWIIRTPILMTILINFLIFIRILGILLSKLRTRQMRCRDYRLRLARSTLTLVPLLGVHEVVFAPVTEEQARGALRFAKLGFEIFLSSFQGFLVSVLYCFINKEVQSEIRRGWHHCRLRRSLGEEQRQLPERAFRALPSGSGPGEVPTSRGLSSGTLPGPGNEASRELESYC


Key:
Test in all cases: cell-based or functional assay
human GIP receptor = target: T1, human GIP receptor
human GLP-1 receptor = human GLP-1 receptor (human, UniProt P43220 24-463)
human glucagon receptor = human glucagon receptor (human, UniProt P47871 26-477)
human glucagon receptor, sequence (P47871 26-477): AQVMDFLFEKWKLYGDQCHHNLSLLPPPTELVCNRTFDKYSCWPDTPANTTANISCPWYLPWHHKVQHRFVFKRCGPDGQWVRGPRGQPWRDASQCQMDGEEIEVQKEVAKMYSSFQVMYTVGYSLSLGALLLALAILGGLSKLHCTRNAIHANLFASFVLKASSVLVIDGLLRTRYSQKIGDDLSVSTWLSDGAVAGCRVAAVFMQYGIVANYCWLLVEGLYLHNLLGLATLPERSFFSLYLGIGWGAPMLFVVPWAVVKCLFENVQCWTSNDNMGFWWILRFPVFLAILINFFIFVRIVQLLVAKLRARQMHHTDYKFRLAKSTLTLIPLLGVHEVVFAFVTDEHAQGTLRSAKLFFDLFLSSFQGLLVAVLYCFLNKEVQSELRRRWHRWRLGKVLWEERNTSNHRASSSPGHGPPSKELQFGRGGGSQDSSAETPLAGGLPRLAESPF

Binder | EC50 hGIP R (human GIP receptor) [nM] | EC50 hGLP-1 R (human GLP-1 receptor) [nM] | EC50 hGLUC R (human glucagon receptor) [nM]
Y[Aib]HGTFTSDLSIQK([γGlu-Stearoyl])EKRAAFEFIEWLKNTGPSSGAPPPS-NH2 (N-terminus assumed; SMILES CCCCCCCCCCCCCCCCCC(=O)N[C@@H](CCC(=O)NCCCC[C@H](NC(=O)[C@H](CCC(N)=O)NC(=O)[C@@H](NC(=O)[C@H](CO)NC(=O)[C@H](CC(C)C)NC(=O)[C@H](CC(=O)O)NC(=O)[C@H](CO)NC(=O)[C@@H](NC(=O)[C@H](Cc1ccccc1)NC(=O)[C@@H](NC(=O)CNC(=O)[C@H](Cc1c[nH]cn1)NC(=O)C(C)(C)NC(=O)[C@@H](N)Cc1ccc(O)cc1)[C@@H](C)O)[C@@H](C)O)[C@@H](C)CC)C(=O)N[C@@H](CCC(=O)O)C(=O)N[C@@H](CCCCN)C(=O)N[C@@H](CCCNC(=N)N)C(=O)N[C@@H](C)C(=O)N[C@@H](C)C(=O)N[C@@H](Cc1ccccc1)C(=O)N[C@@H](CCC(=O)O)C(=O)N[C@@H](Cc1ccccc1)C(=O)N[C@H](C(=O)N[C@@H](CCC(=O)O)C(=O)N[C@@H](Cc1c[nH]c2ccccc12)C(=O)N[C@@H](CC(C)C)C(=O)N[C@@H](CCCCN)C(=O)N[C@@H](CC(N)=O)C(=O)N[C@H](C(=O)NCC(=O)N1CCC[C@H]1C(=O)N[C@@H](CO)C(=O)N[C@@H](CO)C(=O)NCC(=O)N[C@@H](C)C(=O)N1CCC[C@H]1C(=O)N1CCC[C@H]1C(=O)N1CCC[C@H]1C(=O)N[C@@H](CO)C(N)=O)[C@@H](C)O)[C@@H](C)CC)C(=O)O) [exendin-4 peptide analogue SEQ ID NO: 32] | 0.0335 | 0.0417 | 0.0192
Y[Aib]QGTFTSDLSIQK([γGlu-Palmitoyl])EKRAAHEFIEWLKNTGPSSGAPPPS-NH2 (N-terminus assumed; SMILES CCCCCCCCCCCCCCCC(=O)N[C@@H](CCC(=O)NCCCC[C@H](NC(=O)[C@H](CCC(N)=O)NC(=O)[C@@H](NC(=O)[C@H](CO)NC(=O)[C@H](CC(C)C)NC(=O)[C@H](CC(=O)O)NC(=O)[C@H](CO)NC(=O)[C@@H](NC(=O)[C@H](Cc1ccccc1)NC(=O)[C@@H](NC(=O)CNC(=O)[C@H](CCC(N)=O)NC(=O)C(C)(C)NC(=O)[C@@H](N)Cc1ccc(O)cc1)[C@@H](C)O)[C@@H](C)O)[C@@H](C)CC)C(=O)N[C@@H](CCC(=O)O)C(=O)N[C@@H](CCCCN)C(=O)N[C@@H](CCCNC(=N)N)C(=O)N[C@@H](C)C(=O)N[C@@H](C)C(=O)N[C@@H](Cc1c[nH]cn1)C(=O)N[C@@H](CCC(=O)O)C(=O)N[C@@H](Cc1ccccc1)C(=O)N[C@H](C(=O)N[C@@H](CCC(=O)O)C(=O)N[C@@H](Cc1c[nH]c2ccccc12)C(=O)N[C@@H](CC(C)C)C(=O)N[C@@H](CCCCN)C(=O)N[C@@H](CC(N)=O)C(=O)N[C@H](C(=O)NCC(=O)N1CCC[C@H]1C(=O)N[C@@H](CO)C(=O)N[C@@H](CO)C(=O)NCC(=O)N[C@@H](C)C(=O)N1CCC[C@H]1C(=O)N1CCC[C@H]1C(=O)N1CCC[C@H]1C(=O)N[C@@H](CO)C(N)=O)[C@@H](C)O)[C@@H](C)CC)C(=O)O) [exendin-4 peptide analogue SEQ ID NO: 36] | 0.0301 | 0.0052 | 0.0395
Y[Aib]QGTFTSDLSIQK([γGlu-Palmitoyl])DSRAAQDFIEWLKRGGPSSGAPPPS-NH2 (N-terminus assumed; SMILES CCCCCCCCCCCCCCCC(=O)N[C@@H](CCC(=O)NCCCC[C@H](NC(=O)[C@H](CCC(N)=O)NC(=O)[C@@H](NC(=O)[C@H](CO)NC(=O)[C@H](CC(C)C)NC(=O)[C@H](CC(=O)O)NC(=O)[C@H](CO)NC(=O)[C@@H](NC(=O)[C@H](Cc1ccccc1)NC(=O)[C@@H](NC(=O)CNC(=O)[C@H](CCC(N)=O)NC(=O)C(C)(C)NC(=O)[C@@H](N)Cc1ccc(O)cc1)[C@@H](C)O)[C@@H](C)O)[C@@H](C)CC)C(=O)N[C@@H](CC(=O)O)C(=O)N[C@@H](CO)C(=O)N[C@@H](CCCNC(=N)N)C(=O)N[C@@H](C)C(=O)N[C@@H](C)C(=O)N[C@@H](CCC(N)=O)C(=O)N[C@@H](CC(=O)O)C(=O)N[C@@H](Cc1ccccc1)C(=O)N[C@H](C(=O)N[C@@H](CCC(=O)O)C(=O)N[C@@H](Cc1c[nH]c2ccccc12)C(=O)N[C@@H](CC(C)C)C(=O)N[C@@H](CCCCN)C(=O)N[C@@H](CCCNC(=N)N)C(=O)NCC(=O)NCC(=O)N1CCC[C@H]1C(=O)N[C@@H](CO)C(=O)N[C@@H](CO)C(=O)NCC(=O)N[C@@H](C)C(=O)N1CCC[C@H]1C(=O)N1CCC[C@H]1C(=O)N1CCC[C@H]1C(=O)N[C@@H](CO)C(N)=O)[C@@H](C)CC)C(=O)O) [exendin-4 peptide analogue SEQ ID NO: 34] | 0.0513 | 0.0074 | 0.222
Y[Aib]QGTFTSDLSIQK([γGlu-Stearoyl])DEQRAKEFIEWLKAGGPSSGAPPPS-NH2 (N-terminus assumed; SMILES CCCCCCCCCCCCCCCCCC(=O)N[C@@H](CCC(=O)NCCCC[C@H](NC(=O)[C@H](CCC(N)=O)NC(=O)[C@@H](NC(=O)[C@H](CO)NC(=O)[C@H](CC(C)C)NC(=O)[C@H](CC(=O)O)NC(=O)[C@H](CO)NC(=O)[C@@H](NC(=O)[C@H](Cc1ccccc1)NC(=O)[C@@H](NC(=O)CNC(=O)[C@H](CCC(N)=O)NC(=O)C(C)(C)NC(=O)[C@@H](N)Cc1ccc(O)cc1)[C@@H](C)O)[C@@H](C)O)[C@@H](C)CC)C(=O)N[C@@H](CC(=O)O)C(=O)N[C@@H](CCC(=O)O)C(=O)N[C@@H](CCC(N)=O)C(=O)N[C@@H](CCCNC(=N)N)C(=O)N[C@@H](C)C(=O)N[C@@H](CCCCN)C(=O)N[C@@H](CCC(=O)O)C(=O)N[C@@H](Cc1ccccc1)C(=O)N[C@H](C(=O)N[C@@H](CCC(=O)O)C(=O)N[C@@H](Cc1c[nH]c2ccccc12)C(=O)N[C@@H](CC(C)C)C(=O)N[C@@H](CCCCN)C(=O)N[C@@H](C)C(=O)NCC(=O)NCC(=O)N1CCC[C@H]1C(=O)N[C@@H](CO)C(=O)N[C@@H](CO)C(=O)NCC(=O)N[C@@H](C)C(=O)N1CCC[C@H]1C(=O)N1CCC[C@H]1C(=O)N1CCC[C@H]1C(=O)N[C@@H](CO)C(N)=O)[C@@H](C)CC)C(=O)O) [exendin-4 peptide analogue SEQ ID NO: 31] | 0.0131 | 0.0148 | 0.0041
Y[Aib]EGTFTSDLSIQK([γGlu-Palmitoyl])EERAAHEFIEWLKR[Aib]GPSSGAPPPS-NH2 (N-terminus assumed; SMILES CCCCCCCCCCCCCCCC(=O)N[C@@H](CCC(=O)NCCCC[C@H](NC(=O)[C@H](CCC(N)=O)NC(=O)[C@@H](NC(=O)[C@H](CO)NC(=O)[C@H](CC(C)C)NC(=O)[C@H](CC(=O)O)NC(=O)[C@H](CO)NC(=O)[C@@H](NC(=O)[C@H](Cc1ccccc1)NC(=O)[C@@H](NC(=O)CNC(=O)[C@H](CCC(=O)O)NC(=O)C(C)(C)NC(=O)[C@@H](N)Cc1ccc(O)cc1)[C@@H](C)O)[C@@H](C)O)[C@@H](C)CC)C(=O)N[C@@H](CCC(=O)O)C(=O)N[C@@H](CCC(=O)O)C(=O)N[C@@H](CCCNC(=N)N)C(=O)N[C@@H](C)C(=O)N[C@@H](C)C(=O)N[C@@H](Cc1c[nH]cn1)C(=O)N[C@@H](CCC(=O)O)C(=O)N[C@@H](Cc1ccccc1)C(=O)N[C@H](C(=O)N[C@@H](CCC(=O)O)C(=O)N[C@@H](Cc1c[nH]c2ccccc12)C(=O)N[C@@H](CC(C)C)C(=O)N[C@@H](CCCCN)C(=O)N[C@@H](CCCNC(=N)N)C(=O)NC(C)(C)C(=O)NCC(=O)N1CCC[C@H]1C(=O)N[C@@H](CO)C(=O)N[C@@H](CO)C(=O)NCC(=O)N[C@@H](C)C(=O)N1CCC[C@H]1C(=O)N1CCC[C@H]1C(=O)N1CCC[C@H]1C(=O)N[C@@H](CO)C(N)=O)[C@@H](C)CC)C(=O)O) [exendin-4 peptide analogue SEQ ID NO: 37] | 0.0121 | 0.0066 | 12.1
Y[Aib]QGTFTSDLSIQK([γGlu-Palmitoyl])DERAAKDFIEWLKAGGPSSGAPPPS-NH2 (N-terminus assumed; SMILES CCCCCCCCCCCCCCCC(=O)N[C@@H](CCC(=O)NCCCC[C@H](NC(=O)[C@H](CCC(N)=O)NC(=O)[C@@H](NC(=O)[C@H](CO)NC(=O)[C@H](CC(C)C)NC(=O)[C@H](CC(=O)O)NC(=O)[C@H](CO)NC(=O)[C@@H](NC(=O)[C@H](Cc1ccccc1)NC(=O)[C@@H](NC(=O)CNC(=O)[C@H](CCC(N)=O)NC(=O)C(C)(C)NC(=O)[C@@H](N)Cc1ccc(O)cc1)[C@@H](C)O)[C@@H](C)O)[C@@H](C)CC)C(=O)N[C@@H](CC(=O)O)C(=O)N[C@@H](CCC(=O)O)C(=O)N[C@@H](CCCNC(=N)N)C(=O)N[C@@H](C)C(=O)N[C@@H](C)C(=O)N[C@@H](CCCCN)C(=O)N[C@@H](CC(=O)O)C(=O)N[C@@H](Cc1ccccc1)C(=O)N[C@H](C(=O)N[C@@H](CCC(=O)O)C(=O)N[C@@H](Cc1c[nH]c2ccccc12)C(=O)N[C@@H](CC(C)C)C(=O)N[C@@H](CCCCN)C(=O)N[C@@H](C)C(=O)NCC(=O)NCC(=O)N1CCC[C@H]1C(=O)N[C@@H](CO)C(=O)N[C@@H](CO)C(=O)NCC(=O)N[C@@H](C)C(=O)N1CCC[C@H]1C(=O)N1CCC[C@H]1C(=O)N1CCC[C@H]1C(=O)N[C@@H](CO)C(N)=O)[C@@H](C)CC)C(=O)O) [exendin-4 peptide analogue SEQ ID NO: 35] | 0.0182 | 0.0035 | 0.123

From patent US20140213513A1 (Sanofi, priority 2012, published 2014)
